Test results from the supplement of paper PMC9233669.
Fewer inactive variants are shown than the library holds.

Assays:
[1] = test system: biotinyl-Phe-oxazolone; assay: self-aminoacylation, catalytic enhancement (BFO) (fold over background); higher = more active; k-Seq, kA / k0A0; sequences stand for … in GGGAAUGGAUCCACAUCUACGAAUUC…UUCACUGCAGACUUGACGAAGCUG
Method in brief: (§1)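 Catalytic enhancement equals the median kA over the uncatalyzed rate, the latter read from the low-activity peak of a bimodal Gaussian fit. Values of kA came from fitting each sequence's fraction reacted to a pseudo-first-order model, with 1000 bootstraps. Reacted RNA was captured with streptavidin and quantified by triplicate qPCR and Illumina sequencing after 90 minutes at room temperature with 2–1250 μM biotinyl-aminoacyl-oxazolone and 0.43 μM mutagenized RNA pools bearing a 21-nt variable region.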

[2] = test system: biotinyl-Ile-oxazolone; assay: self-aminoacylation, catalytic enhancement (BIO) (fold over background); higher = more active; k-Seq, kA / k0A0; sequences stand for … in GGGAAUGGAUCCACAUCUACGAAUUC…UUCACUGCAGACUUGACGAAGCUG
Method in brief: as §1

[3] = test system: biotinyl-Met-oxazolone; assay: self-aminoacylation, catalytic enhancement (BMO) (fold over background); higher = more active; k-Seq, kA / k0A0; sequences stand for … in GGGAAUGGAUCCACAUCUACGAAUUC…UUCACUGCAGACUUGACGAAGCUG
Method in brief: as §1

[4] = test system: biotinyl-Val-oxazolone; assay: self-aminoacylation, catalytic enhancement (BVO) (fold over background); higher = more active; k-Seq, kA / k0A0; sequences stand for … in GGGAAUGGAUCCACAUCUACGAAUUC…UUCACUGCAGACUUGACGAAGCUG
Method in brief: as §1

[5] = test system: biotinyl-Leu-oxazolone; assay: self-aminoacylation, catalytic enhancement (BLO) (fold over background); higher = more active; k-Seq, kA / k0A0; sequences stand for … in GGGAAUGGAUCCACAUCUACGAAUUC…UUCACUGCAGACUUGACGAAGCUG
Method in brief: as §1

[6] = test system: biotinyl-Trp-oxazolone; assay: self-aminoacylation, catalytic enhancement (BWO) (fold over background); higher = more active; k-Seq, kA / k0A0; sequences stand for … in GGGAAUGGAUCCACAUCUACGAAUUC…UUCACUGCAGACUUGACGAAGCUG
Method in brief: as §1

| Sequence | self-aminoacylation [1] | self-aminoacylation [2] | self-aminoacylation [3] | self-aminoacylation [4] | self-aminoacylation [5] | self-aminoacylation [6] |
| --- | --- | --- | --- | --- | --- | --- |
| AAGUUUGCUAAUCGUUGCAAG [Fam3.1 aminoacylation ribozyme variant] | 1.13 | 0.834 | 0.824 | 0.881 | 0.77 | 0.987 |
| AAGUUUGCUAAUGGUCGGAAG [Fam3.1 aminoacylation ribozyme variant] | 1.55 | 0.861 | 0.811 | 0.91 | 0.849 | 0.587 |
| AAGUUUGCUAAUUGGCGCAAG [Fam3.1 aminoacylation ribozyme variant] | 2.62 | 0.829 | 0.964 | 0.935 | 1.1 | 0.714 |
| AAGUUUGCUAAUUGUCCCAAG [Fam3.1 aminoacylation ribozyme variant] | 2.16 | 1.28 | 1.15 | 1.21 | 0.999 | 1.01 |
| AAGUUUGCUACUACUCGCAAG [Fam3.1 aminoacylation ribozyme variant] | 0.639 | 0.565 | 0.647 | 0.855 | 0.791 | 0.621 |
| AAGUUUGCUACUAGCCGCAAG [Fam3.1 aminoacylation ribozyme variant] | 1.27 | 0.746 | 0.786 | 0.638 | 0.51 | 0.996 |
| AAGUUUGCUACUAGUCGCAAC [Fam3.1 aminoacylation ribozyme variant] | 0.697 | 0.737 | 0.845 | 0.874 | 0.763 | 0.917 |
| AAGUUUGCUACUAGUCGCCAG [Fam3.1 aminoacylation ribozyme variant] | 0.986 | 1.27 | 1.26 | 1.1 | 0.749 | 1.91 |
| AAGUUUGCUACUAGUCUCAAG [Fam3.1 aminoacylation ribozyme variant] | 1.11 | 0.827 | 0.914 | 0.818 | 0.77 | 0.988 |
| AAGUUUGCUAGGAGUCGCAAG [Fam3.1 aminoacylation ribozyme variant] | 0.649 | 0.788 | 0.673 | 0.745 | 0.459 | 1.02 |
| AAGUUUGCUAGUACUCGCAAG [Fam3.1 aminoacylation ribozyme variant] | 0.836 | 0.894 | 0.907 | 0.878 | 0.773 | 0.574 |
| AAGUUUGCUAGUAGCCGCAAG [Fam3.1 aminoacylation ribozyme variant] | 1.34 | 1.16 | 0.787 | 0.797 | 1.09 | 0.972 |
| AAGUUUGCUAGUAGUCGCAUG [Fam3.1 aminoacylation ribozyme variant] | 0.822 | 0.903 | 0.737 | 0.873 | 0.808 | 1.4 |
| AAGUUUGCUAGUAGUCGCGAG [Fam3.1 aminoacylation ribozyme variant] | 3.65 | 1.27 | 1.08 | 1.54 | 1.25 | 2.01 |
| AAGUUUGCUAUCAGUCGCAAG [Fam3.1 aminoacylation ribozyme variant] | 1.37 | 0.794 | 0.865 | 0.931 | 0.733 | 0.615 |
| AAGUUUGCUAUUAGACGCAAG [Fam3.1 aminoacylation ribozyme variant] | 1.08 | 0.577 | 0.712 | 0.894 | 0.691 | 0.55 |
| AAGUUUGCUAUUAGUCGAAAG [Fam3.1 aminoacylation ribozyme variant] | 1.06 | 1.07 | 1.18 | 0.834 | 0.914 | 0.825 |
| AAGUUUGCUAUUAGUCGUAAG [Fam3.1 aminoacylation ribozyme variant] | 0.987 | 0.868 | 0.884 | 0.923 | 0.851 | 1.13 |
| AAGUUUGCUCAUAGGCGCAAG [Fam3.1 aminoacylation ribozyme variant] | 0.996 | 0.735 | 0.839 | 0.852 | 0.577 | 0.876 |
| AAGUUUGCUCAUAGUGGCAAG [Fam3.1 aminoacylation ribozyme variant] | 1.2 | 0.71 | 0.618 | 0.774 | 0.526 | 0.785 |
| AAGUUUGCUGAGAGUCGCAAG [Fam3.1 aminoacylation ribozyme variant] | 1.91 | 0.969 | 1.01 | 0.873 | 1.03 | 1.18 |
| AAGUUUGCUGAUAAUCGCAAG [Fam3.1 aminoacylation ribozyme variant] | 1.05 | 0.707 | 0.716 | 0.754 | 0.586 | 0.682 |
| AAGUUUGCUGAUAGUCGCAAA [Fam3.1 aminoacylation ribozyme variant] | 3.33 | 1.71 | 1.38 | 1.55 | 1.6 | 1.19 |
| AAGUUUGCUGAUAGUCGCGAG [Fam3.1 aminoacylation ribozyme variant] | 6.95 | 1.75 | 1.72 | 1.61 | 2.43 | 1.81 |
| AAGUUUGCUGAUAGUCGCUAG [Fam3.1 aminoacylation ribozyme variant] | 1.86 | 1.14 | 1.31 | 1.26 | 1.08 | 1.11 |
| AAGUUUGCUGCUAGUCGCAAG [Fam3.1 aminoacylation ribozyme variant] | 2.64 | 1.21 | 1.57 | 1.31 | 1.3 | 1.19 |

| Sequence | self-aminoacylation [1] | self-aminoacylation [2] | self-aminoacylation [3] | self-aminoacylation [4] | self-aminoacylation [5] | self-aminoacylation [6] |
| --- | --- | --- | --- | --- | --- | --- |
| AAGUUUGCUGUUAGUCGCAAG [Fam3.1 aminoacylation ribozyme variant] | 0.937 | 0.911 | 0.895 | 0.855 | 0.912 | 1.37 |
| AAGUUUGCUUAUACUCGCAAG [Fam3.1 aminoacylation ribozyme variant] | 0.761 | 0.779 | 0.863 | 0.814 | 0.66 | 0.554 |
| AAGUUUGCUUAUAGACGCAAG [Fam3.1 aminoacylation ribozyme variant] | 0.84 | 0.591 | 0.559 | 0.585 | 0.495 | 0.629 |
| AAGUUUGCUUAUAGUAGCAAG [Fam3.1 aminoacylation ribozyme variant] | 1.56 | 1.04 | 1.06 | 1.12 | 1.08 | 0.878 |
| AAGUUUGCUUAUAGUCGCAAG [Fam3.1 aminoacylation ribozyme variant] | 1.13 | 0.849 | 0.801 | 0.862 | 0.768 | 0.847 |
| AAGUUUGCUUAUAGUCGCAAU [Fam3.1 aminoacylation ribozyme variant] | 1.74 | 1.1 | 1.41 | 1.22 | 1.27 | 1.03 |
| AAGUUUGCUUAUUGUCGCAAG [Fam3.1 aminoacylation ribozyme variant] | 0.903 | 0.771 | 0.641 | 0.713 | 0.686 | 0.97 |
| AAGUUUGGUAACAGUCGCAAG [Fam3.1 aminoacylation ribozyme variant] | 1.24 | 1.07 | 0.994 | 0.987 | 0.857 | 0.693 |
| AAGUUUGGUAAUAGCCGCAAG [Fam3.1 aminoacylation ribozyme variant] | 1.19 | 1.27 | 1.39 | 1.01 | 1.15 | 1.42 |
| AAGUUUGGUAAUAGUCGCAAU [Fam3.1 aminoacylation ribozyme variant] | 3.13 | 2.02 | 1.65 | 1.62 | 1.8 | 2.14 |
| AAGUUUGGUAAUCGUCGCAAG [Fam3.1 aminoacylation ribozyme variant] | 1.07 | 1.39 | 1.49 | 1.32 | 1.33 | 1.52 |
| AAGUUUGGUAUUAGUCGCAAG [Fam3.1 aminoacylation ribozyme variant] | 2.44 | 1.65 | 1.51 | 1.47 | 1.5 | 1.74 |
| AAGUUUGUUAACAGUCGCAAG [Fam3.1 aminoacylation ribozyme variant] | 1.11 | 1.09 | 0.806 | 0.996 | 1.03 | 0.988 |
| AAGUUUGUUAAUAGACGCAAG [Fam3.1 aminoacylation ribozyme variant] | 0.803 | 0.583 | 0.587 | 0.536 | 0.399 | 0.609 |
| AAGUUUGUUAAUAUUCGCAAG [Fam3.1 aminoacylation ribozyme variant] | 1.17 | 1.55 | 1.15 | 1.43 | 1.45 | 1.41 |
| AAGUUUGUUAAUCGUCGCAAG [Fam3.1 aminoacylation ribozyme variant] | 1.05 | 1.21 | 1.35 | 1.22 | 1.15 | 1.04 |
| AAGUUUUAUAAUAGUCGCAAG [Fam3.1 aminoacylation ribozyme variant] | 3.02 | 1.72 | 1.77 | 1.64 | 1.61 | 1.99 |
| AAGUUUUCUAAUAGUCACAAG [Fam3.1 aminoacylation ribozyme variant] | 2.39 | 1.64 | 1.25 | 1.64 | 1.4 | 1.87 |
| AAGUUUUCUAAUAGUCCCAAG [Fam3.1 aminoacylation ribozyme variant] | 2.7 | 1.02 | 0.891 | 1.08 | 0.929 | 1.45 |
| AAGUUUUCUAAUAGUGGCAAG [Fam3.1 aminoacylation ribozyme variant] | 0.75 | 0.856 | 0.758 | 0.662 | 0.804 | 0.658 |
| AAGUUUUCUAAUCGUCGCAAG [Fam3.1 aminoacylation ribozyme variant] | 2.56 | 1.75 | 1.68 | 1.69 | 1.79 | 1.65 |
| AAUAACCUGGUCAUCGAGUGA [Fam2.1 aminoacylation ribozyme variant] | 9.51 | 3.67 | 5.9 | 3.55 | 5.79 | 7.36 |
| AAUACCAUGGUCAUCGAGUGA [Fam2.1 aminoacylation ribozyme variant] | 16.2 | 3.19 | 6.12 | 2.89 | 6.22 | 7.7 |
| AAUACCCUGAUCAUCGAGUGA [Fam2.1 aminoacylation ribozyme variant] | 18.6 | 2.79 | 6.32 | 3.21 | 6.22 | 7.59 |
| AAUACCCUGGUCAUCGGGUGA [Fam2.1 aminoacylation ribozyme variant] | 77.3 | 7.82 | 12.1 | 7.46 | 11.8 | 15.9 |
